Drawing on patent US20150252427A1 (UNIVERSITY OF CONNECTICUT, published 2015), this text covers IC50 for 50 molecules.

Sequences and labels used below:
B1: Tnpo3 Mut peptide (peptide)
peptide: SYMLQALCI
notes: Mut of (sy/LD)MLQALCI; Meth A; also called mutant Tnpo3 peptide; sy-MLQALCI

The first test addresses T1, H-2 K^d molecules purified by affinity chromatography (human, UniProt P61769 21-119; P01902 22-305).
T1 construct: MHC class I molecule, 1-10 nM in the assay, with added human beta-2 microglobulin; also called purified MHC molecules
In words: radiolabeled peptide inhibition assay, purified H-2 K^d.
From the text: (§1) Binding assays. […] Under the conditions utilized, where [label]<[MHC] and IC₅₀≧[MHC], the measured IC50 values are reasonable approximations of the KD values.
As to SDRLPSSRKK [M112 WT peptide], 17 nM corresponded to half-maximal inhibition (IC50).
Same read-out and setting: the same measure for KLQRQYRSPRR [Mast2 WT peptide]: 8510 nM; for KLQRQYRSPRL (CMS5) [Mast2 Mut peptide]: 10100 nM.
LDYERIHKKML [Ugdh WT peptide] displayed an IC50 of 12 nM.
On the same count and under the same terms, the same measure for LYYERIHKKML (Meth A) [Ugdh Mut peptide]: 600 nM.
VYLTCRLEKPA (Meth A) [Gapdh Mut peptide]: the IC50 came out at 1150 nM.
On the same count and under the same terms, the same measure for LYHTRPTAL (Mut of L(y/D)HTRPTAL; Meth A) [Kdm4b Mut peptide]: 264 nM; for DYVPMEQPRPP (CMS5) [Alkbh6.4 Mut peptide]: 47100 nM; for LYVSKLNGP (Mut of L(y/D)VSKLNGP; Meth A) [Galnt1 Mut peptide]: 27100 nM.
The same measure, in the same setting: the same measure for PALKSEEKTL (CMS5) [Stau1.3 Mut peptide]: 69500 nM; for LDMLQALCI (WT of (sy/LD)MLQALCI) [Tnpo3 WT peptide]: 146 nM; for PDLTQYAIIML [Dhx8.1 WT peptide]: 1650 nM.
On the same count and under the same terms, the same measure for PYLTQYAIIML (CMS5) [Dhx8.1 Mut peptide]: 2190 nM; for EYLDLQTQ (Mut of E(y/D)LDLQTQ; Meth A) [Zfp236.1 Mut peptide]: 1640 nM.
On to IYGVVARNRAL (Mut of I(y/D)GVVARNRAL; Meth A) [Dis312.1 Mut peptide], for which it took 143 nM to reach half-maximal inhibition (IC50).
Molecule QVFPGLMER [Atxn10.1 WT peptide] gave an IC50 of 7050 nM.
B1: the IC50 is 82 nM.
AYAKQFAAI (Mut of A(y/D)AKQFAAI; Meth A) [Ube4a.1 Mut peptide] showed an IC50 of 12 nM.
On the same count and under the same terms, the same measure for SEDKIKAIP [Rangap1 WT peptide]: 5110 nM; for HYLQGSNA (Mut of H(y/D)LQGSNA; Meth A) [Fiz1 Mut peptide]: 2470 nM.
The same measure, in the same setting: the same measure for PDLTQYAIIM [Dhx8.4 WT peptide]: 6260 nM; for PYLTQYAIIM (CMS5) [Dhx8.4 Mut peptide]: 6570 nM; for PDLTQYAII (WT of P(y/D)LTQYAII) [Dhx8.3 WT peptide]: 1420 nM.
Still for that read-out and setting: the same measure for PYLTQYAII (Mut of P(y/D)LTQYAII; CMS5) [Dhx8.3 Mut peptide]: 244 nM; for KYMSMLEER (Mut of K(y/D)MSMLEER; Meth A) [Ckap5 Mut peptide (Table 5, 9-mer)]: 58 nM.
As for ELQGLLEDER [Ccdc136 WT peptide], the IC50 came out at 4540 nM.
The same measure, in the same setting: the same measure for LYDVDAAF (Mut of L(y/D)DVDAAF; Meth A) [Cpsf2 Mut peptide]: 1410 nM; for AYAKQFAA (Mut of A(y/D)AKQFAA; Meth A) [Ube4a.2 Mut peptide]: 28600 nM; for PDKRLKAEPA [Prrc2a WT peptide]: 261 nM.
The same measure, in the same setting: the same measure for PYKRLKAEPA (Meth A) [Prrc2a Mut peptide]: 1450 nM; for AYILAALTKLQ (Meth A) [Trim26.2 Mut peptide]: 17600 nM.
In turn, GFHGCIHEVL (CMS5) [Slit3 Mut peptide] showed an IC50 of 51600 nM.
On to ADILAALTKL [Trim26.1 WT peptide], for which the IC50 is 1.1 nM.
Molecule AYILAALTKL (Meth A) [Trim26.1 Mut peptide] displayed an IC50 of 622 nM.
Still for that read-out and setting: the same measure for GDSVLHLAI (WT of G(y/D)SVLHLAI) [Nfkb1 WT peptide]: 1620 nM; for GYSVLHLAI (Mut of G(y/D)SVLHLAI; Meth A) [Nfkb1 Mut peptide]: 0.26 nM; for DYVPMEQP (Mut of D(y/D)VPMEQP; CMS5) [Alkbh6.1 Mut peptide]: 60900 nM.

Another test concerns the target T1, H-2 K^d molecules purified by affinity …. The test is described as above. The source holds these as a separate data set.
From the text: as §1
In turn, AYCETCWEW [Apc WT peptide] showed an IC50 of 60 nM.
In the case of AYCETCWEL (Meth A) [Apc Mut peptide], it took 23 nM to reach half-maximal inhibition (IC50).
On the same count and under the same terms, the same measure for YYVPLLKRVPS [Alms1.2 WT peptide]: 1480 nM; for YYVPLLKRVPL (Meth A) [Alms1.2 Mut peptide]: 421 nM; for TYIRPFETKV (Mut of TYIRP(f/L)ETKV; Meth A) [Ccdc85c Mut peptide]: 6160 nM.
On the same count and under the same terms, the same measure for HYLSAILRL (WT of HYLS(s/A)ILRL) [Pacs2 WT peptide]: 1270 nM.
On the same count and under the same terms, the same measure for HYLSSILRL (Mut of HYLS(s/A)ILRL; Meth A) [Pacs2 Mut peptide]: 41 nM.
In turn, CYAKLKEQL (WT of CYAK(v/L)KEQL) [Ssx2ip WT peptide] displayed an IC50 of 3.2 nM.
The same measure, in the same setting: the same measure for CYAKVKEQL (Mut of CYAK(v/L)KEQL; CMS5) [Ssx2ip Mut peptide]: 26 nM; for HYINMSLPI (WT of HYINM(i/S)LPI) [Ufsp2 WT peptide]: less than 0.1 nM; for HYINMILPI (Mut of HYINM(i/S)LPI; Meth A) [Ufsp2 Mut peptide]: 0.23 nM.
The same measure, in the same setting: the same measure for NYLLSLVAVVL [Serinc1 WT peptide]: 20900 nM; for NYLLSLVAVML (CMS5) [Serinc1 Mut peptide]: 2680 nM.
